Legend:
[1] = target: HA1Aichi (hemagglutinin HA1) (Influenza A virus A/Aichi/2/1968, UniProt P03437 SEQ:17-345); test: SPR; conditions: tags: Sino Biological #11707-V08H1
[2] = target: MIF (macrophage migration inhibitory factor) (UniProt P14174 P14174:2-115); test: SPR; specificity control; conditions: tags: His tag; ATGen
[3] = target: BSA (bovine serum albumin) (Bos taurus, UniProt P02769 P02769:25-607); test: SPR; specificity control; conditions: tags: Nippon Gene
[4] = target: T1, HA1Aichi (hemagglutinin HA1) (Influenza A virus A/Aichi/2/1968, UniProt P03437 SEQ:17-345); test: SPR; negative control; conditions: tags: Sino Biological #11707-V08H1
[5] = target: T1, HA1Aichi (hemagglutinin HA1); test: SPR; conditions: tags: Sino Biological #11707-V08H1; remark: listed apart in the source

Chain of MIF (macrophage migration inhibitory factor) (P14174 2-115, one chain of several): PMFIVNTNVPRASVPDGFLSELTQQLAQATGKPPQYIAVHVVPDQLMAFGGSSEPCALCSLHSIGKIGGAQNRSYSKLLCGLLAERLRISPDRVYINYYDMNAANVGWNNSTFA
Chain of BSA (bovine serum albumin) (P02769 25-607, one chain of several): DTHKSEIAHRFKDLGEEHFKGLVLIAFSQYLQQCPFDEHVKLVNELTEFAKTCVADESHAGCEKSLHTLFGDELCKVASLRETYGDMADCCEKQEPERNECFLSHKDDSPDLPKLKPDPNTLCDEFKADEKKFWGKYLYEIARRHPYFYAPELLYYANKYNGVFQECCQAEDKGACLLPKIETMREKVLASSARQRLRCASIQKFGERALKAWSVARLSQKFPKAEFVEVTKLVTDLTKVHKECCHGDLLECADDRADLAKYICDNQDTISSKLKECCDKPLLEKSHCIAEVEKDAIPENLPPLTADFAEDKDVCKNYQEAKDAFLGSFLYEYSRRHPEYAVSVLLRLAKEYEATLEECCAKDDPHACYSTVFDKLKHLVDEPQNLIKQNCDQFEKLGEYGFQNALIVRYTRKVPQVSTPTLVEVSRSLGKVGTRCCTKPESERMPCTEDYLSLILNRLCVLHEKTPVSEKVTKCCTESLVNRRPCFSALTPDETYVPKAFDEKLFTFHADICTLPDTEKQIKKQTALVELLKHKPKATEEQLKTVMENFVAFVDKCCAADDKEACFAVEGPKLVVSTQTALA

B1: RHA0471_s51 (ssDNA)
DNA: TCCTCGTTGGGGGTGGTGGTGGGTTTCGGTTCATGGGTGGGACGGAGAGGA
binding result [1]: binds

B2: RHA0002 (ssDNA)
DNA: GGTTAGCCCGTCCCGAGATAACTCGGGGTGTTTGATGGTTTGGTCTGGTTGGCTTAACACACGGCGGCTGTAG
modifications: 3' poly(dA)24 tail for SPR
binding result [2]: no binding
binding result [3]: no binding

B3: RHA1635_s62 (ssDNA)
DNA: GGGGCCCACCCTCTCGCTGGCGGCTCTGTTCTGTTCTCGTCTCCTTGATTTCTGTGGGCCCC
binding result [1]: binds

B4: RHA1634_s60 (ssDNA)
DNA: GGGCACCCTCTCGCTGTACGGTTGATGCACGTTTCTTTCTCTTTATATTGCTGGGTGCCC
binding result [1]: binds

B5: RHA0385_s28 (ssDNA)
DNA: TTGGGGTTATTTTGGGAGGGCGGGGGTT
binding result [1]: binds

B6: RHA0006_s19 (ssDNA)
DNA: GGGTTTGGGTTGGGTTGGG
modifications: 3' poly(dA)24 tail for SPR
binding result [2]: no binding
binding result [3]: no binding

B7: RHA0111 (ssDNA)
DNA: CCTGCACCCAGTGTCCCGTGCTCCGGGGGTTGGGCGTGGTGGGTCTGTCGGGTTTCGGACGGAGAGGAGGACGG
modifications: 3' poly(dA)24 tail for SPR
binding result [2]: no binding
binding result [3]: no binding

B8: Control (ssDNA)
DNA: CGGCGTTTGGTTGGCGTGAACCATTTTTAAGTT
modifications: 3' poly(dA)24 tail for SPR; 3' biotin for ELAA
binding result [4]: no binding

B9: RHA0127 (ssDNA)
DNA: CCTGCACCCAGTGTCCCTGGGTCGGCTAATTTGGCATTTGGGGTGGTTTGGGGGGGGGACGGAGAGGAGGACGG
modifications: 3' poly(dA)24 tail for SPR
binding result [2]: no binding
binding result [3]: no binding

B10: RHA0006_s19_d5 (ssDNA)
DNA: GGGTTTGGGTTGGGTTGGGTTTTTGGGTTTGGGTTGGGTTGGG
modifications: 3' poly(dA)24 tail for SPR; 3' biotin (detection) or 3' amino (capture) for ELAA
binding result [5]: binds

B11: RHA0002_s33 (ssDNA)
DNA: GTGTTTGATGGTTTGGTCTGGTTGGCTTAACAC
modifications: 3' poly(dA)24 tail for SPR
binding result [2]: no binding
binding result [3]: no binding

B12: RHA0002_s33 (ssDNA)
DNA: GTGTTTGATGGTTTGGTCTGGTTGGCTTAACAC
binding result [1]: binds

B13: RHA0006 (ssDNA)
DNA: GGTTAGCCCGTCCCGAGATAACTCGGTGTGTTGGGTTTGGGTTGGGTTGGGTCTTAACACACGGCGGCTGTAG
modifications: 3' poly(dA)24 tail for SPR
binding result [2]: no binding
binding result [3]: no binding
